In patent US20190055322A1 (Ablynx, published 2019):
Numbering of substitutions follows the chain as printed.

B1: Nanobody 3E10 (VHH)
VHH: EVQLVESGGGLVQAGGSLRLSCTASGHTFSSYTMGWFRQAPGKEREFVAAMTRSGFNTHYSDSVKGRFTISRDNTSRDNTKITMALQMNSLKPEDTAVYYCTTGRGLTSYVANFWGQGTQVTVSS
B2: Nanobody 12B02 (VHH)
VHH: EVQLVESGGGLVQPGGSLRLSCAASGFSLGVFAIGWFRQAPGKEREGVSCIDSSDGRTTYADSVKGRFTISRDNAKNTVYLQMNSLKPEDTAVYYCATDIETDVCSGAGWGFWGQGTQVTVSS
B3: Nanobody 5E02 (VHH)
VHH: EVQLVESGGGLVQPGGSLRLSCAASGITLDSIAICWFRQAPGKEREGVSCSRGSDGSTYYADSVKGRFTISRVNAKNTVYLQMNSLKPEDTAVYYCAAAPSIFYSGGYFPSGMDYWGKGTQVTVSS
B4: Nanobody 3B11 (VHH)
VHH: EVQLVESGGGLVQAGGSLRLSCAASGFTFDDYVIGWFRQAPGKEREGVSCISRLDGRTYYTDSVKGRFTISSDNAKNTVYLQMNSLKPEDTAVYYCALEPRYTGDYYPVHPELYDYWGQGTQVTVSS
B5: Nanobody 256 (13F07-40GS-5H01) (VHH)
chain: EVQLVESGGGLVQAGGSLRLSCAASGNTFSTNPMYWYRQAEGKQRELVASISSRGITNYADSVRGRFSISRDNTKDTVYLQMNSLKPEDTAVYYCRLASLSSGTVYWGKGTLVTVSSGGGGSGGGGSGGGGSGGGGSGGGGSGGGGSGGGGSGGGGSEVQLVESGGGLVQPGGSLRLSCAASGSTLDYYAIGWFRQAPGKEREGVSCTSNSGSTYYGGSVKGRFTASRDNAKNTVYLQMNSLRPEDTAVYYCVATIGCATLGGTLDVQRYYYRGQGTLVTVSS
B6: Nanobody 261 (5H01-40GS-2B10) (VHH)
chain: EVQLVESGGGLVQPGGSLRLSCAASGSTLDYYAIGWFRQAPGKEREGVSCTSNSGSTYYGGSVKGRFTASRDNAKNTVYLQMNSLRPEDTAVYYCVATIGCATLGGTLDVQRYYYRGQGTLVTVSSGGGGSGGGGSGGGGSGGGGSGGGGSGGGGSGGGGSGGGGSEVQLVESGGGLVQPGGSLRLSCAASGSIFSINNMGWYRQAPGKQRELVTVVTSNLITTYADSVKGRFTISRDNAKNTVYLQMNSLKPEDTAVYYCNAWARSVGSVPYSQFWGQGTLVTVSS
B7: Nanobody 271 (7C10-40GS-14E10) (VHH)
chain: EVQLVESGGGLVQAGGSLRLSCTASGRTLSSYTMGWFRQAPGTEREFVAAMTRSGFNTYYADSVKGRFTISRDSTENTMALQMSSLKPEDTAVYYCTAGRGLTSYRADYWGQGTLVTVSSGGGGSGGGGSGGGGSGGGGSGGGGSGGGGSGGGGSGGGGSEVQLVESGGGLVQPGGSLRLSCAASGRIFSINTMGWYRQAPGKQRELVAGVTINAITNYADSVKGRFTISRDNAKNTVWLQMNSLKPEDTAVYYCHAWARSSGSAPYSQNWGQGTLVTVSS
B8: Nanobody 2G09 (VHH)
VHH: EVQLVESGGGLVQPGGSLRLSCAASGSFGDNYELYAMTWFRQAPGERRDFVASVTGDGSTSYADSVKDRFTISRDNAKKLMYLQMNSLKPEDTAVYYCRLLNYWGQGTLVTVSS
B9: Nanobody 14B10 (VHH)
VHH: EVQLVESGGGLVQPGGSLRLSCAASGRIFSINNMGWYHQAPGKQRELVATITMNGITTYADSVKGRFTISRDNAKNTVYLQMNSLKPEDTAVYYCSCWVRSSGGDPYRDYWGQGTQVTVSS
B10: Nanobody 257 (13F07-40GS-2B10) (VHH)
chain: EVQLVESGGGLVQAGGSLRLSCAASGNTFSTNPMYWYRQAEGKQRELVASISSRGITNYADSVRGRFSISRDNTKDTVYLQMNSLKPEDTAVYYCRLASLSSGTVYWGKGTLVTVSSGGGGSGGGGSGGGGSGGGGSGGGGSGGGGSGGGGSGGGGSEVQLVESGGGLVQPGGSLRLSCAASGSIFSINNMGWYRQAPGKQRELVTVVTSNLITTYADSVKGRFTISRDNAKNTVYLQMNSLKPEDTAVYYCNAWARSVGSVPYSQFWGQGTLVTVSS
B11: Nanobody 259 (1E11-40GS-5H01) (VHH)
chain: EVQLVESGGGLVQPGGSLRLSCAASGSTRSVNPMAWFRQAPGRQREWVATISRSGYATYADSVKGRFTISGDNAKSSVYLQMNSLKPEDTAVYYCVTGTYWGQGTLVTVSSGGGGSGGGGSGGGGSGGGGSGGGGSGGGGSGGGGSGGGGSEVQLVESGGGLVQPGGSLRLSCAASGSTLDYYAIGWFRQAPGKEREGVSCTSNSGSTYYGGSVKGRFTASRDNAKNTVYLQMNSLRPEDTAVYYCVATIGCATLGGTLDVQRYYYRGQGTLVTVSS
B12: Nanobody 11B09 (VHH)
VHH: EVQLVESGGGLVQAGGSLRLSCAASRLTFNHYNMGWFRQAPGKERERVAEVTWSGDKIYYVDSVKGRFTISRDNTPNPVYLYLQMNSLKPEDTAVYYCATAPRGLPYANGYWGQGTQVTVSS
B13: Nanobody 4C03 (VHH)
VHH: EVQLVESGGGLVQAGGSLRLSCVISASTVRNYDMGWFRQAPGKEREFVAAIDWSGGSTRYADSVKGRFTVSRDNAKNTVYLQMNSLKPEDTAVYYCVAAGFYNNYLRTAPNDWNYWGQGTLVTVSS
B14: Nanobody 4G10 (VHH)
VHH: B13 VHH with A26E, S27D, T28G, A50T, D52N, R59N, V79M, N84D, Y115D, L121Q
B15: Nanobody 7C10 (VHH)
VHH: EVQLVESGGGLVQAGGSLRLSCTASGRTLSSYTMGWFRQAPGTEREFVAAMTRSGFNTYYADSVKGRFTISRDSTENTMALQMSSLKPEDTAVYYCTAGRGLTSYRADYWGQGTLVTVSS
B16: Nanobody 2B02 (VHH)
VHH: EVQLVESGGGLVQPGDSLRLSCAASGRILSINNMVWYRQAPGKQRELVAHITSSGSTGYADSVKGRFTISRDNAKNTFYLQMTNLNPEDTAVYYCNCWVSSDSNAPLKNYWGQGTQVTVSS
B17: Nanobody 10C05 (VHH)
VHH: EVQLVESGGGLVQPGGSLRLSCAASGSIFSINTMGWYRQAPGKQRDLVASITMNQVPNYADSVQGRFTISRDNVRNTVHLQMNAVKPEDTADYFCNAWVRSSGASPYTNYWGQGTQVTVSS

Assays:
[1] = target: T1, recombinant PcrV protein (rPcrV), strain PAO1, amino acid residues 1-294, C-terminal His6 (Pseudomonas aeruginosa strain PAO1); experiment: SPR ProteOn, periplasmic extract on immobilised rPcrV
[2] = target: T2, PcrV of P. aeruginosa strain PA103 (on TTSS-induced bacteria) (Pseudomonas aeruginosa strain PA103); experiment: cell-based or functional assay
[3] = target: T1, recombinant PcrV protein (rPcrV), …; experiment: ELISA, periplasmic extract on biotinylated rPcrV
[4] = target: T2, PcrV of P. aeruginosa strain PA103 (on …); experiment: cell-based or functional assay; remark: listed apart in the source
[5] = target: GST-PcrV (strain PAO1, amino acid residues 1-294) (Pseudomonas aeruginosa strain PAO1); experiment: SPR Biacore T100, GST-PcrV immobilised
[6] = target: T2, PcrV of P. aeruginosa strain PA103 (on …); experiment: cell-based or functional assay; remark: listed apart in the source
[7] = target: T2, PcrV of P. aeruginosa strain PA103 (on …); experiment: cell-based or functional assay; remark: listed apart in the source
[8] = target: T2, PcrV of P. aeruginosa strain PA103 (on …); experiment: cell-based or functional assay; remark: listed apart in the source
Wherever cytotox assay (% inhibition), P3X63, PA103 is given: test concentration or dose not given here.

| Binder | koff [1] [s⁻¹] | % inhibition, P3X63 cytotoxicity assay, MOI 4 [2] [%] | IC50 (nM), P3X63 cytotoxicity assay, MOI 4 [2] [nM] | binding ELISA (OD 450 nm) [3] [OD 450 nm] | cytotox assay (% inhibition), P3X63, PA103 [4] [%] | other results |
| --- | --- | --- | --- | --- | --- | --- |
| B1 | 0.0015 | 94 | 48 | 2.51 | 25 | Kd [5]: 1 nM; koff [5]: 0.0039 s⁻¹; kon [5]: 2.7e+06 M⁻¹ s⁻¹ |
| B2 | 4.4e-05 | – | – | – | 14 | – |
| B3 | 0.00057 | 100 | 38 | 2.43 | 71 | Kd [5]: 4 nM; koff [5]: 0.00068 s⁻¹; kon [5]: 180000 M⁻¹ s⁻¹ |
| B4 | 0.0027 | 54 | 1140 | 0.55 | 26 | – |
| B5 | – | – | – | – | – | Efficacy (%), P3X63 cytotoxicity, MOI 12 [6]: 100%; IC50 value (M), P3X63 cytotoxicity, MOI 12 [6]: 5.4e-11 M; Ratio (IC50 Fab 13.37/IC50 Nanobody), A549 cytotoxicity [7]: 21 fold; % inhibition in P3X63 cytotoxicity assay, extract 1/150 [8]: 65% |
| B6 | – | – | – | – | – | Efficacy (%), P3X63 cytotoxicity, MOI 12 [6]: 100%; IC50 value (M), P3X63 cytotoxicity, MOI 12 [6]: 4.8e-10 M; Ratio (IC50 Fab 13.37/IC50 Nanobody), A549 cytotoxicity [7]: 1 fold; % inhibition in P3X63 cytotoxicity assay, extract 1/150 [8]: 42% |
| B7 | – | – | – | – | – | Efficacy (%), P3X63 cytotoxicity, MOI 12 [6]: 100%; IC50 value (M), P3X63 cytotoxicity, MOI 12 [6]: 5.9e-10 M; Ratio (IC50 Fab 13.37/IC50 Nanobody), A549 cytotoxicity [7]: 1 fold; % inhibition in P3X63 cytotoxicity assay, extract 1/150 [8]: 43% |
| B8 | 0.001 | 55 | 4 | 2.37 | 45 | – |
| B9 | 0.00092 | – | – | – | 20 | % inhibition, P3X63 cytotoxicity assay, MOI 3 [2]: > 70%; IC50 (nM), P3X63 cytotoxicity assay, MOI 3 [2]: > 3000 nM |
| B10 | – | – | – | – | – | Efficacy (%), P3X63 cytotoxicity, MOI 12 [6]: 100%; IC50 value (M), P3X63 cytotoxicity, MOI 12 [6]: 1.3e-10 M; Ratio (IC50 Fab 13.37/IC50 Nanobody), A549 cytotoxicity [7]: 10 fold; % inhibition in P3X63 cytotoxicity assay, extract 1/150 [8]: 80% |
| B11 | – | – | – | – | – | Efficacy (%), P3X63 cytotoxicity, MOI 12 [6]: 100%; IC50 value (M), P3X63 cytotoxicity, MOI 12 [6]: 3.9e-11 M; Ratio (IC50 Fab 13.37/IC50 Nanobody), A549 cytotoxicity [7]: 9 fold; % inhibition in P3X63 cytotoxicity assay, extract 1/150 [8]: 52% |
| B12 | 0.0048 | – | – | – | 37 | % inhibition, P3X63 cytotoxicity assay, MOI 3 [2]: 100%; IC50 (nM), P3X63 cytotoxicity assay, MOI 3 [2]: 100 nM |
| B13 | 0.0068 | – | – | 0.89 | 22 | % inhibition, P3X63 cytotoxicity assay, MOI 1.5 [2]: > 20%; IC50 (nM), P3X63 cytotoxicity assay, MOI 1.5 [2]: 8890 nM |
| B14 | 0.00013 | 100 | 105 | 2.6 | 81 | Kd [5]: 5 nM; koff [5]: 0.00065 s⁻¹; kon [5]: 140000 M⁻¹ s⁻¹ |
| B15 | 0.00082 | 100 | 42 | 2.55 | 58 | Kd [5]: 2 nM; koff [5]: 0.0018 s⁻¹; kon [5]: 1.2e+06 M⁻¹ s⁻¹ |
| B16 | 0.00037 | 100 | 1730 | 2.4 | 46 | – |
| B17 | 0.0006 | – | – | – | 25 | % inhibition, P3X63 cytotoxicity assay, MOI 3 [2]: 100%; IC50 (nM), P3X63 cytotoxicity assay, MOI 3 [2]: > 1000 nM |
